The nanobody polyreactivity screen of Harvey et al. (2022)

Assay: yeast display, Sf9 membrane polyspecificity reagent, FACS + sequencing; frameworks hold sequencing errors
In short: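 Nanobodies came from a synthetic yeast display library in Saccharomyces cerevisiae BJ5465, induced with galactose for 36–48 hours and stained for 1 hour at 4 °C with 10% biotinylated, detergent-solubilized Sf9 membrane reagent. Cells were enriched on streptavidin microbeads and then FACS-sorted, with low and high (top ~1%) gates set on anti-HA fluorescence for expression and streptavidin fluorescence for reagent binding. Each polyreactivity label reflects the gate a clone came from. Genes were amplified by colony PCR, sequenced by MiSeq 2 × 250 and filtered by CDR length.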

Sequence	polyreactivity (PSR sort gate)
QVQLVESGGGLVQAGGSLRLSCAASGITFNTYAMGWYRQAPGKERELVAVITWSDGGTYYADSVKGRFTISRDNAKNTVYLQMNSLKPEDTAVYYCAKVLGGLRHGEVLDEYDYWGQGTQVTVSS	low polyreactivity
QVQLVESGGGLVQAGGSLRLSCAASGITFNYYVKGWYRQAPGKERELVAAIRRGGSTNYADSVKGRFTISRDNAKNTVYLQMNSLKPEDTAVYYCASRTYRGLAYDYWGQGTQVTVSS	high polyreactivity
QVQLVESGGGLVQAGGSLRLSCAASGITFPDYAMGWYRQAPGKERELVASISDSGGNTYYADSVKGRFTISRDNAKNTVYLQMNSLKPEDTAVYYCAVDSWYYYIVLYDYWGQGTQVTVSS	high polyreactivity
QVQLVESGGGLVQAGGSLRLSCAASGITFPGYAMGSYRQAPGKERELVAVIRKSGTSTYYADSVKGRFTISRDNAKNTVYLQMNSLKPEDTAVYYCAAGGPSTLDDYWGQGTQVTVSS	low polyreactivity
QVQLVESGGGLVQAGGSLRLSCAASGITFPGYAMGWYRQAPGKERELVAAIDWSGDGTYYADSVKGRFTISRDNAKNTVYLQMNSLKPEDTAVYYCAKDNYPNHSTVLAVIYDYWGQGTQVTVSS	low polyreactivity
QVQLVESGGGLVQAGGSLRLSCAASGITFPHYAMGWYRQAPGKERELVAAISSSGGRTYYADSVKGRFTISRDNAKNTVYFQMNSLKPEDTAVYYCNKLRYPLLPPKYYYWGQGTQVTVSS	high polyreactivity
QVQLVESGGGLVQAGGSLRLSCAASGITFPKYAMGWYRQAPGKERELVAAITKSGGSTYYADSVKGRFTISRDNAKNTVYLQMNSLKPEDTAVYYCAVVSRGITKYDYWGQGTQVTVSS	high polyreactivity
QVQLVESGGGLVQAGGSLRLSCAASGITFPLYVMGWYRQAPGKERELVAAISASGGSTYADSVKGRFTISRDNAKNTVYLQMNSLKPEDTAVYYCNADVYVGYEYVYWGQGTQVTVSS	low polyreactivity
QVQLVESGGGLVQAGGSLRLSCAASGITFPRNAMGWYRQAPGKERELVAAISARGGNTYYADSVKGRFTISRDNSKNTGYLQMIRLKPEDTAVYDCNALGSSFSEPSEYDYWGQGTQVTVSS	low polyreactivity
QVQLVESGGGLVQAGGSLRLSCAASGITFPRNAMGWYRQAPGKERELVAAISARGGNTYYADSVKGRFTISRDNSKNTVYLQMNSLKPEDTAVYYCNALGSSYSEPSEYDYWGQGTQVTVSS	low polyreactivity
QVQLVESGGGLVQAGGSLRLSCAASGITFPRYTMGWYRPAPGKERELVAAISSGGSTYYADSVKGRFTISRDNAKNTVYLQMNSLKPEDTAVYYCNAVVPYWYYIYDYWGQGTQVTVSS	high polyreactivity
QVQLVESGGGLVQAGGSLRLSCAASGITFPSYVMGWYRQAPGKEREFVAAITGSAGSTYYADSVKGRFTISRDNAKNTVYLQMNSLKPEDTAVYYCAARVRYVNPKYYYWGQGTQVTVSS	high polyreactivity
QVQLVESGGGLVQAGGSLRLSCAASGITFPVYAMGWYRQAPGKEREFVASIRFSTGRTYYADSVKARFTISRDYAKNTVYLQMNSLKPEDTAVYYCRGTTQSPYNSWGQGTQVTVSS	high polyreactivity
QVQLVESGGGLVQAGGSLRLSCAASGITFPYNAMGWYRQAPGKERELVADISSSGGITYYADSVKGRFTISRDNAKNTVYLQMNSLKPEDTAVYYCAVRKYGYGFEMDYWGQGTQVTVSS	low polyreactivity
QVQLVESGGGLVQAGGSLRLSCAASGITFQRYAMGWYRQAPGKERELVAAITRRGGSTYYADSVKGRFTISRDNAKNTVYLQMNILKPEDTAVYYCAADLFFKARGYDYWGQGTQVTVSS	high polyreactivity
QVQLVESGGGLVQAGGSLRLSCAASGITFQWYAMGWYRQAPGKERELVAAITYRGGSTYYADSVKGRFTISRDNAKNTVYLQMNSLKPEDTAVYYCARDHSRHLHPSWLDYWGQGTQVTVSS	high polyreactivity
QVQLVESGGGLVQAGGSLRLSCAASGITFQYYAMGWYRQAPGKERELVASISYRGGRTYYADSVKGRFTISRDNAKNTVYLQMNSLKQEDTSVYYCAADWRYTTFWTLRYYGFDYWGQGTQVTVSS	high polyreactivity
QVQLVESGGGLVQAGGSLRLSCAASGITFRAYALGWYRQAPGKEREFVAAISWRGGSTYYADSVKGRFTISRDNAKNTVYLQMNSLKPEDTAVYYCAVGSYDHDYWYEYWGQGTQVTVSS	high polyreactivity
QVQLVESGGGLVQAGGSLRLSCAASGITFRFNARVWYRQEPGKEREFVAAITYSGDSTYYADSVKGRFTISRDNAKNTVYLQMNSLKPEDTAVYYCAADYYAISRRIFYYWGQGTQVTVSS	low polyreactivity
QVQLVESGGGLVQAGGSLRLSCAASGITFRFYALGWYRKAPGKEREFVAAISSRGGRTYYADSVKGRFTISRDHAKNTVYLQMNSLKPEDTAVYYCAADFYYRTVATVTSVARYDYWGQGTQVTVLS	high polyreactivity
QVQLVESGGGLVQAGGSLRLSCAASGITFRFYAMGWYRQAPGKERELVAAISWSGGSTNYADSVKGRFTISRDNAKNTVYLQLNSLKPEDTAVYYCAADQYYYRYIRTSKYDYWGQGTQVTVSS	high polyreactivity
QVQLVESGGGLVQAGGSLRLSCAASGITFRFYAMGWYRQPPGKERELVAAITSGGGTYYADSVKGRFTISRDNAKNTVYLQMNSLKPEDTAVYYCAAYQYNRKRHNYWGLGTQVTVSS	high polyreactivity

Sequence	polyreactivity (PSR sort gate)
QVQLVESGGGLVQAGGSLRLSCAASGITFRGYAMGWYRKAPGKERELVASITNTDSTYYADSVKGRFTISRDNAKNTVYLQMNSLKPEDTAVYYCAARRGRKYGYWGQGTQVTVSS	high polyreactivity
QVQLVESGGGLVQAGGSLRLSCAASGITFRGYAMGWYRQAPGKERELVAAITWSGGSTYYADSVKGRFTISRDNAKNTVYLQMNSLKPEDTAVYYCAAYSLHNYLSEYGYWGQGTQVTVSS	high polyreactivity
QVQLVESGGGLVQAGGSLRLSCAASGITFRGYAMGWYRQAPGKERELVATISSGGSTNYADSVKGRFTISRDNAKNTVDLQRISLKPEDTAVYYCNAVYRRGYGYWGQGTQVTVSS	high polyreactivity
QVQLVESGGGLVQAGGSLRLSCAASGITFRKYAMGWSRQAPGKERELVAAISAGGGRTFYADSVKGRFTISRDNAKNTVYLQMNSLKPEDTAVYYCNADLGIGYDYWGQGTQVTVSS	high polyreactivity
QVQLVESGGGLVQAGGSLRLSCAASGITFRPYPMGWYRQAPGKERELVATINWSGGSTYYADSVKGRFTISRDNAKKTVYLQMNSLKPEDTAVSYCAVTWYVRRWYGYWGQGTQVTVSS	high polyreactivity
QVQLVESGGGLVQAGGSLRLSCAASGITFRRYAMGWYRKAPGTERELVATITRGDNTYYADSVKGRFTISRDNAKNTVYLQMNSLKPEDTAVYYCAKGWPTDDYDYWGQGTQVTVSS	high polyreactivity
QVQLVESGGGLVQAGGSLRLSCAASGITFRVNAMGWYRQAPGKERELVAAISQIGGSTYYADSVKGRFTISRDNAKNTVYLQMNSLKPEDTAVYYCAARRRWYNYNYWGQGTQVTVSS	high polyreactivity
QVQLVESGGGLVQAGGSLRLSCAASGITFRWNAMGWYRPAPGKERELVAAITTRGGGTYYADSVKGRFTISRDNAKNTVYLQMNSMKPEDTAVYYCAAKKSRYPYNYWGQGTQVTVSS	high polyreactivity
QVQLVESGGGLVQAGGSLRLSCAASGITFRYYAMGWYRPAPGKERELVAALTSGGSTNYADSVKGRFTISRDNAKNTVYLQMNSLIPEDTAVYYCAATSYYRTNYGLVFLYRRNYWGQGTQVTVSS	high polyreactivity
QVQLVESGGGLVQAGGSLRLSCAASGITFRYYAMGWYSQAPGKERELVAAITRGGRTNYADSVKGRYTISRDNAKNTVYLQMNSLKPEDTAVYYCAAGRVGRLSEYNYWGQGTQVTVSS	high polyreactivity
QVQLVESGGGLVQAGGSLRLSCAASGITFRYYVMGWYRQAPGKERELVAAISWSGGSTYYADSVKGRFTISRDNAKNTVYLQMNCLKPEDTAVYYCAAYKRRSNGRYWTYDYWGQGTQVTVSS	high polyreactivity
QVQLVESGGGLVQAGGSLRLSCAASGITFSEYAMGWYRQAPGKERELVAAITSGGNTYYADSVKGRFTISRDNAKNTVYLQMNSLKPEDTAVYYCAATFSSAFAYYYWGQGTQVTVSS	low polyreactivity
QVQLVESGGGLVQAGGSLRLSCAASGITFSFYAMGWYRQAPGKERELVATIDSGGSTNYADSVKGRFTISRDNAKNTVYLQMNSLKPEDTAVYYCAADGVWYYYDMDYWGQGTQVTVSS	low polyreactivity
QVQLVESGGGLVQAGGSLRLSCAASGITFSGYGMGWYRQAPGKERELVAAISRSGGSTYYADSVKGRFTISRDNAKNTVYLQMNSLKPEDTAVYYCATASRTSRTGWAGYYWGQGTQVTVSS	high polyreactivity
QVQLVESGGGLVQAGGSLRLSCAASGITFSHNAMGWYRQAPGKERELVAAITRSGGSTYYADSVKGRFTISRDNAKNTVYLQMNCLKPEDTAVYYCATEDYYRQYGYWSLSRMDHWGQGTQVTVSS	low polyreactivity
QVQLVESGGGLVQAGGSLRLSCAASGITFSHNAMGWYRQAPGKERELVAAITRSGRSTYYADSVKGRFTISRDNAKNTVYLQMNSLKPEDTAVYYCSTDNHQRRAGSGYWGQGTQVTVSS	low polyreactivity
QVQLVESGGGLVQAGGSLRLSCAASGITFSKYAMGWYRQAPGKERELVAAITTSGVSTYYADSVKGRFTISRDNAKNTVYLQMNSLKPEDTAVYYCATELGWGGFYKYGHASQFDYWGQGTQVTVSS	low polyreactivity
QVQLVESGGGLVQAGGSLRLSCAASGITFSPYTMGWYRQAPGKERELVAAINSGGRTNYADSVKGRFTISRDNAKNTVYLQMNSLKPEDTAVYYCTKRGHPARLGYYYWGQGTQVTVSS	low polyreactivity
QVQLVESGGGLVQAGGSLRLSCAASGITFSPYTRGWYRQATGKERELVAAINDGAITYYADSVKGRFTISRDNAKNTVYLQMNSQKPEDTAVYYCAAAAWGTDPFSTDYASYDYWGQVTQVTVSS	low polyreactivity
QVQLVESGGGLVQAGGSLRLSCAASGITFSQYAMGWYRPAPGKERELVAAISWSGVRTYYADSVKGRFTISRDNSKNTVYLQMNSLKPEDTAVYYCAAVPVYYGYDYWGQGTQVTVSS	high polyreactivity
QVQLVESGGGLVQAGGSLRLSCAASGITFSRNAMGWSRQARGKERELVAAISRGGSTNYADSVKGRFTISRDNAKNTVYLQMNSLKPEDTAVYYCNAPGYLSWRFYGVKRNYWGQGTQVTVSS	high polyreactivity
